# From patent publication US11292821B2, “Peptides and combination of peptides for use in immunotherapy against lung cancer, including NSCLC, SCLC and other cancers” (Immatics Biotechnologies GmbH, priority 2017, dated 2022)
# What was measured:
# CD8+ T cells = assay: In vitro T-cell priming assay with aAPCs (in vitro immunogenicity for MHC class I presented peptides); format: cell-based, human; conditions: in vitro immunogenicity
# HLA-A*02 = HLA-A*02 (Homo sapiens, UniProt P04439, D140Y/D185E/D98H/E176V/E277Q/G131W/G231S/I119V/I121R/I166T/I218V/N151K/N90K/P208A/P217A/Q86G/Q94H/R138H/R169H); assay: MHC binding assay (UV-ligand exchange, β2m ELISA)
# HLA-B*08 = assay: MHC binding assay (UV-ligand exchange, β2m ELISA); set-up: species or system human
# HLA-A*03 = HLA-A*03 (Homo sapiens, UniProt P04439); assay: MHC binding assay (UV-ligand exchange, β2m ELISA)
Substance,Wells positive [%] (CD8+ T cells; HLA A*02),"Peptide exchange (peptide exchange yield, MHC class I binding score) (HLA-A*02)","Peptide exchange (peptide exchange yield, MHC class I binding score) (HLA-A*03)",also measured
85 (YIDEFQSLV; listed as Homo sapiens) [compound 85],“++” (20%-49% = ++),“++++” (>75% = ++++),,
304 (ELKKLYCQI; listed as Homo sapiens) [compound 304],,,,"Peptide exchange (peptide exchange yield, MHC class I binding score) (HLA-B*08): “++++” (>75% = ++++)"
393 (ILLPYLQTL; listed as Homo sapiens) [compound 393],“+” (<20% = +),“++++” (>75% = ++++),,
125 (VLQPFLPSI; listed as Homo sapiens) [compound 125],“++++” (>=70% = ++++),“++++” (>75% = ++++),,
209 (RTQIPMSEK; listed as Homo sapiens) [compound 209],,,“++++” (>75% = ++++),Wells positive [%] (CD8+ T cells; HLA A*03): “+” (<20% = +)
309 (DAIQRKYSC; listed as Homo sapiens) [compound 309],,,,"Peptide exchange (peptide exchange yield, MHC class I binding score) (HLA-B*08): “+++” (>50 = +++)"
219 (RLRSSLVFK; listed as Homo sapiens) [compound 219],,,“++++” (>75% = ++++),
132 (ALWLVDPLTV; listed as Homo sapiens) [compound 132],“+++” (50%-69% = +++),“++++” (>75% = ++++),,
130 (NLWGGQGLLGV; listed as Homo sapiens) [compound 130],“+” (<20% = +),“++++” (>75% = ++++),,
302 (HLLQKQTSI; listed as Homo sapiens) [compound 302],,,,"Peptide exchange (peptide exchange yield, MHC class I binding score) (HLA-B*08): “+++” (>50 = +++)"
211 (TVNPVAIHK; listed as Homo sapiens) [compound 211],,,“++++” (>75% = ++++),
301 (YMHKLLVL; listed as Homo sapiens) [compound 301],,,,"Peptide exchange (peptide exchange yield, MHC class I binding score) (HLA-B*08): “++++” (>75% = ++++)"
207 (RSFNGLLTMY; listed as Homo sapiens) [compound 207],,,“++++” (>75% = ++++),
89 (ILSTTMVTV; listed as Homo sapiens) [compound 89],“+++” (50%-69% = +++),“++++” (>75% = ++++),,
133 (MTLPVDAVISV; listed as Homo sapiens) [compound 133],“+” (<20% = +),“++++” (>75% = ++++),,
458 (GIADFVLKY; listed as Homo sapiens) [compound 458],,,“++++” (>75% = ++++),
93 (TLQEKILQV; listed as Homo sapiens) [compound 93],“+” (<20% = +),“++++” (>75% = ++++),,
455 (RIADIFVKK; listed as Homo sapiens) [compound 455],,,“++++” (>75% = ++++),
218 (KTLVAELLILK; listed as Homo sapiens) [compound 218],,,“+++” (>50 = +++),Wells positive [%] (CD8+ T cells; HLA A*03): “+” (<20% = +)
317 (LVKVKVLL; listed as Homo sapiens) [compound 317],,,,"Peptide exchange (peptide exchange yield, MHC class I binding score) (HLA-B*08): “++++” (>75% = ++++)"
86 (FVIDGFDEL; listed as Homo sapiens) [compound 86],,“++++” (>75% = ++++),,
203 (KVKDTPGLGK; listed as Homo sapiens) [compound 203],,,“++++” (>75% = ++++),
95 (ITIGVLARV; listed as Homo sapiens) [compound 95],“++++” (>=70% = ++++),“++++” (>75% = ++++),,
107 (LLQGAIESV; listed as Homo sapiens) [compound 107],,“++++” (>75% = ++++),,
96 (HLVGGLHTV; listed as Homo sapiens) [compound 96],“+++” (50%-69% = +++),“++++” (>75% = ++++),,
392 (SLFKDQMEL; listed as Homo sapiens) [compound 392],“+” (<20% = +),“++++” (>75% = ++++),,
217 (RILNQILYY; listed as Homo sapiens) [compound 217],,,“++++” (>75% = ++++),
210 (ATSGVPVYK; listed as Homo sapiens) [compound 210],,,“++++” (>75% = ++++),Wells positive [%] (CD8+ T cells; HLA A*03): “++++” (>=70% = ++++)
120 (ALLANLPAV; listed as Homo sapiens) [compound 120],,“++++” (>75% = ++++),,
